Results reported in paper PMC6509359 (Molecular Cell, 2019).

Biological target: the molecule itself
Test: SEC-MALS; 100 μL of 1-2 mg/mL protein on Superdex 200 10/300, 0.5 mL/min, PBS + 2 mM DTT

B1: Human USP28 (149-703) L415E I419E (domain or fragment, UniProt Q96RU2 149-703, looked up)
chain: PNPNDWRRVDGWPVGLKNVGNTCWFSAVIQSLFQLPEFRRLVLSYSLPQNVLENCRSHTEKRNIMFMQELQYLFALMMGSNRKFVDPSAALDLLKGAFRSSEEQQQDVSEFTHKLLDWLEDAFQLAVNVNSPRNKSENPMVQLFYGTFLTEGVREGKPFCNNETFGQYPLQVNGYRNLDECLEGAMVEGDVELLPSDHSVKYGQERWFTKLPPVLTFELSRFEFNQSLGQPEKIHNKLEFPQIIYMDRYMYRSKELIRNKRECIRKEKEEEKILQQKLERYVKYGSGPARFPLPDMLKYVIEFASTKPASESCPPESDTHMTLPLSSVHCSVSDQTSKESTSTESSSQDVESTFSSPEDSLPKSKPLTSSRSSMEMPSQPAPRTVTDEEINFVKTCLQRWRSEIEQDIQDLKTCIASTTQTIEQMYCDPLLRQVPYRLHAVLVHEGQANAGHYWAYIYNQPRQSWLKYNDISVTESSWEEVERDSYGGLRNVSAYCLMYINDKLPYFNAEAAPTESDQMSEVEALSVELKHYIQEDNWRFEQEVEEWEEEQSCKI
notes: also called variant with the insertion-destabilizing mutation; source: E. coli Rosetta2(DE3)pLacI, purified (HisTrap, 3C protease, Resource Q, size exclusion)
  stoichiometry N: 2

B2: Human USP25 (157-714) P521S F522E (domain or fragment, UniProt Q9UHP3 157-714, looked up)
chain: NPYDRKRQDKAPVGLKNVGNTCWFSAVIQSLFNLLEFRRLVLNYKPPSNAQDLPRNQKEHRNLPFMRELRYLFALLVGTKRKYVDPSRAVEILKDAFKSNDSQQQDVSEFTHKLLDWLEDAFQMKAEEETDEEKPKNPMVELFYGRFLAVGVLEGKKFENTEMFGQYPLQVNGFKDLHECLEAAMIEGEIESLHSENSGKSGQEHWFTELPPVLTFELSRFEFNQALGRPEKIHNKLEFPQVLYLDRYMHRNREITRIKREEIKRLKDYLTVLQQRLERYLSYGSGPKRFPLVDVLQYALEFASSKPVCTSPVDDIDASSPPSGSIPSQTLPSTTEQQGALSSELPSTSPSSVAAISSRSVIHKSETQSRIPPDLPMHPAPRHITEEELSVLESCLHRWRTEIENDTRDLQESISRIHRTIELMYSDKSMIQVPYRLHAVLVHEGQANAGHYWAYIFDHRESRWMKYNDIAVTKSSWEELVRDSFGGYRNASAYCLMYINDKAQFLIQEEFNKETGQPLVGIETLPPDLRDFVEEDNQRFEKELEEWDAQLAQKALQE
notes: source: E. coli Rosetta2(DE3)pLacI, purified (HisTrap, 3C protease, Resource Q, size exclusion)
  stoichiometry N: 2

B3: Human USP25 (157-714) F522A (domain or fragment, UniProt Q9UHP3 157-714, looked up)
chain: NPYDRKRQDKAPVGLKNVGNTCWFSAVIQSLFNLLEFRRLVLNYKPPSNAQDLPRNQKEHRNLPFMRELRYLFALLVGTKRKYVDPSRAVEILKDAFKSNDSQQQDVSEFTHKLLDWLEDAFQMKAEEETDEEKPKNPMVELFYGRFLAVGVLEGKKFENTEMFGQYPLQVNGFKDLHECLEAAMIEGEIESLHSENSGKSGQEHWFTELPPVLTFELSRFEFNQALGRPEKIHNKLEFPQVLYLDRYMHRNREITRIKREEIKRLKDYLTVLQQRLERYLSYGSGPKRFPLVDVLQYALEFASSKPVCTSPVDDIDASSPPSGSIPSQTLPSTTEQQGALSSELPSTSPSSVAAISSRSVIHKPATQSRIPPDLPMHPAPRHITEEELSVLESCLHRWRTEIENDTRDLQESISRIHRTIELMYSDKSMIQVPYRLHAVLVHEGQANAGHYWAYIFDHRESRWMKYNDIAVTKSSWEELVRDSFGGYRNASAYCLMYINDKAQFLIQEEFNKETGQPLVGIETLPPDLRDFVEEDNQRFEKELEEWDAQLAQKALQE
notes: as for B2
  stoichiometry N: 2

B4: Human USP25 (157-714) P521A (domain or fragment, UniProt Q9UHP3 157-714, looked up)
chain: NPYDRKRQDKAPVGLKNVGNTCWFSAVIQSLFNLLEFRRLVLNYKPPSNAQDLPRNQKEHRNLPFMRELRYLFALLVGTKRKYVDPSRAVEILKDAFKSNDSQQQDVSEFTHKLLDWLEDAFQMKAEEETDEEKPKNPMVELFYGRFLAVGVLEGKKFENTEMFGQYPLQVNGFKDLHECLEAAMIEGEIESLHSENSGKSGQEHWFTELPPVLTFELSRFEFNQALGRPEKIHNKLEFPQVLYLDRYMHRNREITRIKREEIKRLKDYLTVLQQRLERYLSYGSGPKRFPLVDVLQYALEFASSKPVCTSPVDDIDASSPPSGSIPSQTLPSTTEQQGALSSELPSTSPSSVAAISSRSVIHKAFTQSRIPPDLPMHPAPRHITEEELSVLESCLHRWRTEIENDTRDLQESISRIHRTIELMYSDKSMIQVPYRLHAVLVHEGQANAGHYWAYIFDHRESRWMKYNDIAVTKSSWEELVRDSFGGYRNASAYCLMYINDKAQFLIQEEFNKETGQPLVGIETLPPDLRDFVEEDNQRFEKELEEWDAQLAQKALQE
notes: as for B2
  stoichiometry N: 2

B5: Human USP28 (1-703) (domain or fragment, UniProt Q96RU2 1-703, looked up)
chain: MTAELQQDDAAGAADGHGSSCQMLLNQLREITGIQDPSFLHEALKASNGDITQAVSLLTDERVKEPSQDTVATEPSEVEGSAANKEVLAKVIDLTHDNKDDLQAAIALSLLESPKIQADGRDLNRMHEATSAETKRSKRKRCEVWGENPNPNDWRRVDGWPVGLKNVGNTCWFSAVIQSLFQLPEFRRLVLSYSLPQNVLENCRSHTEKRNIMFMQELQYLFALMMGSNRKFVDPSAALDLLKGAFRSSEEQQQDVSEFTHKLLDWLEDAFQLAVNVNSPRNKSENPMVQLFYGTFLTEGVREGKPFCNNETFGQYPLQVNGYRNLDECLEGAMVEGDVELLPSDHSVKYGQERWFTKLPPVLTFELSRFEFNQSLGQPEKIHNKLEFPQIIYMDRYMYRSKELIRNKRECIRKLKEEIKILQQKLERYVKYGSGPARFPLPDMLKYVIEFASTKPASESCPPESDTHMTLPLSSVHCSVSDQTSKESTSTESSSQDVESTFSSPEDSLPKSKPLTSSRSSMEMPSQPAPRTVTDEEINFVKTCLQRWRSEIEQDIQDLKTCIASTTQTIEQMYCDPLLRQVPYRLHAVLVHEGQANAGHYWAYIYNQPRQSWLKYNDISVTESSWEEVERDSYGGLRNVSAYCLMYINDKLPYFNAEAAPTESDQMSEVEALSVELKHYIQEDNWRFEQEVEEWEEEQSCKI
notes: USP28, human, residues 1-703; source: E. coli Rosetta2(DE3)pLacI, purified (HisTrap, 3C protease, Resource Q, size exclusion)
  stoichiometry N: 2

B6: Human USP28 (1-1077) (enzyme, UniProt Q96RU2 1-1077, looked up)
chain: MTAELQQDDAAGAADGHGSSCQMLLNQLREITGIQDPSFLHEALKASNGDITQAVSLLTDERVKEPSQDTVATEPSEVEGSAANKEVLAKVIDLTHDNKDDLQAAIALSLLESPKIQADGRDLNRMHEATSAETKRSKRKRCEVWGENPNPNDWRRVDGWPVGLKNVGNTCWFSAVIQSLFQLPEFRRLVLSYSLPQNVLENCRSHTEKRNIMFMQELQYLFALMMGSNRKFVDPSAALDLLKGAFRSSEEQQQDVSEFTHKLLDWLEDAFQLAVNVNSPRNKSENPMVQLFYGTFLTEGVREGKPFCNNETFGQYPLQVNGYRNLDECLEGAMVEGDVELLPSDHSVKYGQERWFTKLPPVLTFELSRFEFNQSLGQPEKIHNKLEFPQIIYMDRYMYRSKELIRNKRECIRKLKEEIKILQQKLERYVKYGSGPARFPLPDMLKYVIEFASTKPASESCPPESDTHMTLPLSSVHCSVSDQTSKESTSTESSSQDVESTFSSPEDSLPKSKPLTSSRSSMEMPSQPAPRTVTDEEINFVKTCLQRWRSEIEQDIQDLKTCIASTTQTIEQMYCDPLLRQVPYRLHAVLVHEGQANAGHYWAYIYNQPRQSWLKYNDISVTESSWEEVERDSYGGLRNVSAYCLMYINDKLPYFNAEAAPTESDQMSEVEALSVELKHYIQEDNWRFEQEVEEWEEEQSCKIPQMESSTNSSSQDYSTSQEPSVASSHGVRCLSSEHAVIVKEQTAQAIANTARAYEKSGVEAALSEVMLSPAMQGVILAIAKARQTFDRDGSEAGLIKAFHEEYSRLYQLAKETPTSHSDPRLQHVLVYFFQNEAPKRVVERTLLEQFADKNLSYDERSISIMKVAQAKLKEIGPDDMNMEEYKKWHEDYSLFRKVSVYLLTGLELYQKGKYQEALSYLVYAYQSNAALLMKGPRRGVKESVIALYRRKCLLELNAKAASLFETNDDHSVTEGINVMNELIIPCIHLIINNDISKDDLDAIEVMRNHWCSYLGQDIAENLQLCLGEFLPRLLDPSAEIIVLKEPPTIRPNSPYDLCSRFAAVMESIQGVSTVTVK
notes: USP28, human, residues 1-1077 (1,077 aa); also called full-length USP28; source: E. coli Rosetta2(DE3)pLacI, purified (HisTrap, 3C protease, Resource Q, size exclusion)
  stoichiometry N: 2
